Here are results for two molecules from patent US20170114104A1.

One may read the koff as the first-order rate constant of dissociation. A low value points to a long-lived complex.

The target in the assay is Biotin-AP (biotinylated AP-peptide with a fluorescent dye). As to the kind of experiment: native-PAGE off-rate under excess biotin, 37 °C.

B1: Monodin (MA) (designed binder)
chain: FDASNFKDFSSIASASSSWQNQHGSTMIIQVDSFGNVSGQYVNRAEGTGCQNSPYPLTGRVNGTFIDFSVKWNNSTENCNSNTQWTGYAQVNGNNTEIVTRWNLKYEGGSGPAIWQGQDTFQYVPTTE
Take B1: the koff came out at 5.1e-05 s⁻¹.

B2: Rhizavidin (RA) (protein)
chain: FDASNFKDFSSIASASSSWQNQSGSTMIIQVDSFGNVSGQYVNRAQGTGCQNSPYPLTGRVNGTFIAFSVGWNNSTENCNSATGWTGYAQVNGNNTEIVTSWNLAYEGGSGPAIEQGQDTFQYVPTTE
B2 showed a koff of 4.9e-05 s⁻¹.
